The values that follow come from IntAct's records for PubMed 20739936.

The labels stand for the following.
B1: Borealin (Homo sapiens), Q53HL2 (parent)
chain: MAPRKGSSRVAKTNSLRRRKLASFLKDFDREVEIRIKQIESDRQNLLKEVDNLYNIEILRLPKALREMNWLDYFALGGNKQALEEAATADLDITEINKLTAEAIQTPLKSAKTRKVIQVDEMIVEEEEEEENERKNLQTARVKRCPPSKKRTQSIQGKGKGKRSSRANTVTPAVGRLEVSMVKPTPGLTPRFDSRVFKTPGLRTPAAGERIYNISGNGSPLADSKEIFLTVPVGGGESLRLLASDLQRHSIAQLDPEALGNIKKLSNRLAQICSSIRTHK
partner: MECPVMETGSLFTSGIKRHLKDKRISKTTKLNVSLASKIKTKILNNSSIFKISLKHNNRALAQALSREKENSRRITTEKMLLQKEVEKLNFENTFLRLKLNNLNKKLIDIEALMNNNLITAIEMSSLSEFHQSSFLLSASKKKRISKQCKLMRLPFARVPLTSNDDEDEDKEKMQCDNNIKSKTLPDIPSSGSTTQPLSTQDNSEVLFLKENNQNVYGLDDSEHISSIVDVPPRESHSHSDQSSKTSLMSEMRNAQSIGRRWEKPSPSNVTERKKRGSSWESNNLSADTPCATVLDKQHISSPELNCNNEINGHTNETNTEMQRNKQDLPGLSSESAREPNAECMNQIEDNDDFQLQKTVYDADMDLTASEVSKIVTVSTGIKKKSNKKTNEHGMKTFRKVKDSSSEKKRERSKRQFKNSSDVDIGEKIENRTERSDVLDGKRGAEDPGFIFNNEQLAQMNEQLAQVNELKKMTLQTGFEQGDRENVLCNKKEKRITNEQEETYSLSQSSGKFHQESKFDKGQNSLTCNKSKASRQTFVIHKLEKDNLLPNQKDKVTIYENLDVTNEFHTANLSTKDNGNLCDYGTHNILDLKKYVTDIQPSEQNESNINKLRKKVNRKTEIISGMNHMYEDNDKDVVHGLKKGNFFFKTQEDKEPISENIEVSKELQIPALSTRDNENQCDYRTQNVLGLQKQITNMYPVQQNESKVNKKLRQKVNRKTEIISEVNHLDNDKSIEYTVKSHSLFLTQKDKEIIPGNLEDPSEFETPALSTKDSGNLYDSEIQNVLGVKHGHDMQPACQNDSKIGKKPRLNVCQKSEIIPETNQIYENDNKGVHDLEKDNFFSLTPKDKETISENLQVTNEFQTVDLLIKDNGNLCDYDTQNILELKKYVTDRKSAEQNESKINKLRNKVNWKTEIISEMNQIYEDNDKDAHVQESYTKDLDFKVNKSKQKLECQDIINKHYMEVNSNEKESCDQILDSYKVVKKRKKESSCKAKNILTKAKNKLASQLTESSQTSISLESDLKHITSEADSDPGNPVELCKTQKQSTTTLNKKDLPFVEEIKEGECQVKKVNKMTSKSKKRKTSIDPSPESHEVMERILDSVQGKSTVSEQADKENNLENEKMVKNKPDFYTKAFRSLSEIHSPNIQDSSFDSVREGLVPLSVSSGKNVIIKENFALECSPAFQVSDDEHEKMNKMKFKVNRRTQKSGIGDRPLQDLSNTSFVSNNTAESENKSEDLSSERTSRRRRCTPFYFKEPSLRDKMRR
B2: Chromosomal passenger complex protein bir1 (Schizosaccharomyces pombe (strain ATCC 38366 / 972)), O14064 (parent)
chain: MKPITSSSKRRWNRFRREMCNYSKRLDTFQKKKWPRAKPTPETLATVGFYYNPISESNSEERLDNVTCYMCTKSFYDWEDDDDPLKEHITHSPSCPWAYILSSKNNPNQNPQAAALTKCREQTFVDKVWPYTNRPDYHCEPSVMAASGFVYNPTADAKDAAHCLYCDINLHDWEPDDDPYTEHKRRRADCVFFTWKDPNSLSPTKLSFLSTSNIDPEDLTEDNSILPVSPTRDSTKSHKTLNFSPSRKNNLNARPLTMSLYTNTSEEKDSQPTRAPQSPTKPVLLTAPRRKNKSPKKSKPAVFKPVKPIFSDEDEDDDDLTASQPFSKGICNDSMQVAKKNFTEEIPLKEDEKDNELEHLVSPATSVHTTVSDITGHQSVTDESDEQNNCMSTPPKIEIESKIEEEISVVSKSKEISSSVSSVGKEQNHTEKQVAIETPEQQKVEKEDEHLNLQGSFIEESTKQPISSKPSTSSPDMTDAATGGRVSSSSFRDKILQTNFSPRSTIDSFSNISKKRNSEEANDENDETNLKIPIPEKKRKFQEVLQSKNILVSSTEDSHEPVKVTEDSQTAIHVSKFEDLENKSMESEQSLQLLSESENDDKPLIDLIPLLAIKRKDNLVSGVLEKGKSTSTSKTKFDTSIVDFIEKPKTEISEVLPEEKRKAICDESQTVRVSIDRGVTKTRDVSSPVSDEKSENVNHEEANSGHTVMNVHSSLDPQPIVQPNELESGSYLKDLPDRNVGNSEKVTFQEDDINSPKLQSKNNQTVEAVNTETSDKLQEKEANHELENIEKIEEKLTEVDKVSLSDAFPDQEIKNSRTSVQNGTRSVSKNTPEKETKVDKIDNVSKKDVETSPGSCETSSAFAKTYAEKEVTSINLPSVRKPLDESYYDHSISPFDPLCQSSFLAPQTPVKSKHALPLVEANAPPWEPIDFSSLLESPVPNPVEPNKLSEKELDMTVEQWIKFMYAKCAKEFEEACEEKIEWLLEEGKRAEEYIQNL
partner: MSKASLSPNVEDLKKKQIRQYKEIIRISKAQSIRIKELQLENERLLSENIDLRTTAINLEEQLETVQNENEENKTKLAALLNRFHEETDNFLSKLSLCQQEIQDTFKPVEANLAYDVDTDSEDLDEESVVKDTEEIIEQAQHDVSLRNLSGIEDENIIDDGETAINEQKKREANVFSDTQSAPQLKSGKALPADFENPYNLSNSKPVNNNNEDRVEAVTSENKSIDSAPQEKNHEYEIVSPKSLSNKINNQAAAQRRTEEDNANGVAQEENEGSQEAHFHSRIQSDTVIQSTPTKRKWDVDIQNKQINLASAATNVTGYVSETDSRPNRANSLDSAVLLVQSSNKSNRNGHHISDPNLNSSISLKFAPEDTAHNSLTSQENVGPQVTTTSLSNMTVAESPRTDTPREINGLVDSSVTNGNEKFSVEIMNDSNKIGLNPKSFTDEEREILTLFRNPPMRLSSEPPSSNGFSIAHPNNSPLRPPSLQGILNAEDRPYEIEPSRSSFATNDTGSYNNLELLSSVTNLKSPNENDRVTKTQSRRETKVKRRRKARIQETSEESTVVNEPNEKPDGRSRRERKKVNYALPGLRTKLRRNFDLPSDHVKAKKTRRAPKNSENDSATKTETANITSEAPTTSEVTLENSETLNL
B3: Borealin (Homo sapiens), Q53HL2 (parent)
chain: B1 chain

The variants in the first assay derive from B1. The conditions noted are these: with sgo2_human SGO2, Q562F6.
Take T106A;T171A;T185A;T189A;T199A;T204A;S219A: the “effect of a mutation on the interaction” value was “disrupting interaction strength”.

The next assay covers variants of B2. The conditions noted are these: with sgo2_schpo sgo2, O13734.
For the variant S202A;S229A;S244A;S278A;S294A, the “effect of a mutation on the interaction” value is on record as “disrupting interaction”.

Variants of B2 are the subject of a further assay. The following applies: with sgo2_schpo sgo2, O13734. This is another data set of the same source.
As to S202A;S229A;S244A;S278A;S294A;T393A;T831A;T908A, the “effect of a mutation on the interaction” value was “disrupting interaction”.

Variants of B3 are the subject of the next assay. The following applies: with sgo1_human SGO1, Q5FBB7.
Sequence of sgo1_human SGO1, Q5FBB7 (Q5FBB7 whole entry): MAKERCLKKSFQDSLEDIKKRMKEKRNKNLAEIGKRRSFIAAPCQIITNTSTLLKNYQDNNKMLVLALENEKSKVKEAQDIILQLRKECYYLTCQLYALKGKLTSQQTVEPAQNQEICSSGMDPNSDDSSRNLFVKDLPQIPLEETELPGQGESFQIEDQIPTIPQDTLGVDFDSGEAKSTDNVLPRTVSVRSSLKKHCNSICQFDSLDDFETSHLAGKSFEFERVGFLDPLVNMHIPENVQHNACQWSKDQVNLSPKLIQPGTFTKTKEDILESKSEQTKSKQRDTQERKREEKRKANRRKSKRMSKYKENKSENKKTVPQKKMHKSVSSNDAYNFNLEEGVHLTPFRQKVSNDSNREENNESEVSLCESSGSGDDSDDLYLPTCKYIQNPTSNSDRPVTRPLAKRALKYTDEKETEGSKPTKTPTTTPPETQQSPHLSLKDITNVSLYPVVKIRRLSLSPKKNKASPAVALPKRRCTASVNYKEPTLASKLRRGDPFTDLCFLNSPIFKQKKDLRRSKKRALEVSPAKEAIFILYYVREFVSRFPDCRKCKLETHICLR
With T106A;T171A;T185A;T189A;T199A;T204A;S219A, the “effect of a mutation on the interaction” value was “disrupting interaction strength”.
